This note sets out measurements from publication PMC9842190 (Seminars in immunology, 2022).

Assay [1] concerns the target T1, Human C3b, site-specifically biotinylated at its thioester cysteine (human, UniProt P01024 23-667; P01024 749-1663). Kind of assay: SPR.
Assay [2] has as its target T1, Human C3b, site-specifically …. Kind of assay: SPR. The source holds these as a separate data set.

T1 sequence (P01024 23-667, chain 1 of 2): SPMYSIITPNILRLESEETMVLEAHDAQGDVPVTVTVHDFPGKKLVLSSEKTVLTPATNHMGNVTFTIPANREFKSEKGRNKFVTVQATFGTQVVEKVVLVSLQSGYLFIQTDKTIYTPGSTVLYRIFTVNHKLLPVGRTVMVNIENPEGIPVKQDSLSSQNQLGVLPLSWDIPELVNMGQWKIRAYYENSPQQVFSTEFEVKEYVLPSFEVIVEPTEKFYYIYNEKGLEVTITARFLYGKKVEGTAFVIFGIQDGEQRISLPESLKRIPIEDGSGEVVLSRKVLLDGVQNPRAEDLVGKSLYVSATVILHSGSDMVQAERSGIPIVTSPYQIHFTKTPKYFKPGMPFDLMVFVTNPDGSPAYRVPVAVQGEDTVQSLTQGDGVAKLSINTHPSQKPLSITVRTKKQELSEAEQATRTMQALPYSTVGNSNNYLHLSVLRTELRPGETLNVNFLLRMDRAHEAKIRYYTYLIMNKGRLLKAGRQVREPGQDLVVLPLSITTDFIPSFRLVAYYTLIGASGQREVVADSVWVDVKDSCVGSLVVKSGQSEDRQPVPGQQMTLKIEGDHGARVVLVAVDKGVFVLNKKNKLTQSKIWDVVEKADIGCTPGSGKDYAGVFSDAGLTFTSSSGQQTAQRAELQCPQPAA
T1 sequence (P01024 749-1663, chain 2 of 2): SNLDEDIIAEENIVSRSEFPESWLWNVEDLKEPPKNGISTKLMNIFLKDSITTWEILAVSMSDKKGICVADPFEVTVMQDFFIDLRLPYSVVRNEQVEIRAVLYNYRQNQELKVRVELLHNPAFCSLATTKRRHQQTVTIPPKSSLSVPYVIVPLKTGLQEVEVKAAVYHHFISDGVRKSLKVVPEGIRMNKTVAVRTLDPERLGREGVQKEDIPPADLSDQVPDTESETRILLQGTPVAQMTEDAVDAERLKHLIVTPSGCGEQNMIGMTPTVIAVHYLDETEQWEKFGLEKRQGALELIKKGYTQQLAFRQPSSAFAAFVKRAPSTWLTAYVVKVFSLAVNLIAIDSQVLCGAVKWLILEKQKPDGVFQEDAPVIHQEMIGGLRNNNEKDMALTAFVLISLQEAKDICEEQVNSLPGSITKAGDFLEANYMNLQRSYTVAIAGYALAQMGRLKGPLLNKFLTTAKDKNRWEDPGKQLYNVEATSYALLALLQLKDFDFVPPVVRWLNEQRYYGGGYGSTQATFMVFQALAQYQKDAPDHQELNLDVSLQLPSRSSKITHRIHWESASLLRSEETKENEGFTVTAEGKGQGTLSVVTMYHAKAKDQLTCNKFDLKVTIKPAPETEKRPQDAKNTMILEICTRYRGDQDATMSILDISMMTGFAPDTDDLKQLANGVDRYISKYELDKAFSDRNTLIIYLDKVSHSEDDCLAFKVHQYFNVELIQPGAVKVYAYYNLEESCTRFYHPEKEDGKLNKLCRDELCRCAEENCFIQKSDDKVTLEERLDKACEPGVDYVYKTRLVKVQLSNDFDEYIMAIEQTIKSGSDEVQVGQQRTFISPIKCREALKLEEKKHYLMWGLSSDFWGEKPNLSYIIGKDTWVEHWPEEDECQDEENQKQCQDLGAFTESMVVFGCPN

B1: CCP domains 19-20 of human Factor H (domain or fragment)
chain: GKCGPPPPIDNGDITSFPLSVYAPASSVEYQCQNLYQLEGNKRITCRNGQWSEPPKCLHPCVISREIMENYNIALRWTAKQKLYSRTGESVEFVCKRGYRLSSRSHTLRTTCWDGKLEYPTCAKR
Regarding B1, the binding result in assay [1] is given as “binds”.

B2: C-terminal domain of the Staphylococcus aureus immune evasion protein Efb (domain or fragment)
chain: TDATIKKEQKLIQAQNLVREFEKTHTVSAHRKAQKAVNLVSFEYKVKKMVLQERIDNVLKQGLV
In the case of B2, in assay [2], the Kd – broadly, the concentration at which binding is half-saturated – stood at 0.11 nM; the “half-life of the complex” value was approximately 1 h; the off-rate constant (koff) (in general, a measure of how fast the partners let go of each other) came to 0.000187 s⁻¹.
